We go through one substance from US20160122431A1.

The assay addresses murine B7-DC (murine) (UniProt Q9WUL5). Briefly: flow cytometry; murine bone marrow derived DC incubated with or without soluble PD-1.Ig, then stained with sHIgM12 (the competitor read out). In general terms: In flow cytometry, cells or beads pass a laser one at a time.

Sequence of murine B7-DC (murine) (Q9WUL5 20-247): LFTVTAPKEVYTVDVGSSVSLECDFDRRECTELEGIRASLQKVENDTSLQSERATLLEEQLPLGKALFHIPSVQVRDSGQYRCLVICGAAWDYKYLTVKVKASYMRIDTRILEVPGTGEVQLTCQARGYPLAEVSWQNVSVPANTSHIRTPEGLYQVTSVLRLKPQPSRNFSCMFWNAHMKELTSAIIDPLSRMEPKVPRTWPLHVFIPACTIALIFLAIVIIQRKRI
Sequence of PD-1.Ig fusion protein (Fc fusion) (Q02242 25-169): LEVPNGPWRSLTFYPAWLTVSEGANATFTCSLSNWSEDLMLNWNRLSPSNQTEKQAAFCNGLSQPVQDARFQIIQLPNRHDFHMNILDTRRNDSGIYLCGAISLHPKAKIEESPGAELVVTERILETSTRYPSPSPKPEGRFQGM

PD-1.Ig fusion protein (Fc fusion) came in with a sHIgM12 staining left, percent of the level in the absence of PD-1 of 50%.
